Experimental data from patent US20240376224A1 (University of California, published 2024).
Each block holds one binder with its values, some of them ahead of it.

What was measured:
[1] = biological target: T1, mouse c-CDCP1 on Fc1245 cells (mouse) (UniProt Q5U462); assay: flow cytometry on Fc1245 c-CDCP1 cells (FIG. 9B); FIG. 9B
T1 sequence 1: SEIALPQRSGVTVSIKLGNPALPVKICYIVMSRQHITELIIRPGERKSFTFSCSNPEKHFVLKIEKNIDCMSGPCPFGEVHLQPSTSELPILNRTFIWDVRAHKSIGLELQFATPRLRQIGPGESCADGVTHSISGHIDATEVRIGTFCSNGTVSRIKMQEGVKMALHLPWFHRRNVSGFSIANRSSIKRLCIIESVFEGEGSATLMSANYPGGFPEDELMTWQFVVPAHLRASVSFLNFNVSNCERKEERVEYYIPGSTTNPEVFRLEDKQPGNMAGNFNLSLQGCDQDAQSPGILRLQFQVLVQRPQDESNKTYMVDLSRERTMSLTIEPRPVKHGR
T1 sequence 2: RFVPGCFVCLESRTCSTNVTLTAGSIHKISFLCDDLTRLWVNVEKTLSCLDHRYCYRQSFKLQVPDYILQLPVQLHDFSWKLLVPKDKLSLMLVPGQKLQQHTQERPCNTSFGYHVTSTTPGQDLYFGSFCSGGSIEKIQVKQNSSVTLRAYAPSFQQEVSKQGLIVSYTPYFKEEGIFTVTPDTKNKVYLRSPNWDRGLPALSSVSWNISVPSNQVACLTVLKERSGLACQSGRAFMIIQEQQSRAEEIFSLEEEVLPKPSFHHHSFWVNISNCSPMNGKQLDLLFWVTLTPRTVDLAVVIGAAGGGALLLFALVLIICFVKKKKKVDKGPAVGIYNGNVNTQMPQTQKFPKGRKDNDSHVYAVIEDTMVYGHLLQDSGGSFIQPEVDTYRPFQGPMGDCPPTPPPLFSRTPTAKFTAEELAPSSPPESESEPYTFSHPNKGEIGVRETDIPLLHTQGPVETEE

[2] = biological target: T2, mouse c-CDCP1 (recombinant cleaved mouse CDCP1) (mouse, UniProt Q5U462 30-368; Q5U462 369-666, limits assumed); assay: BLI (Octet), table of binding affinities to mCDCP1
T2 construct: Mouse antigens made were c-CDCP1-Fc (Cut 1) and (Cut 2); also called mouse cleaved CDCP1; cleaved mCDCP1
T2 sequence 1: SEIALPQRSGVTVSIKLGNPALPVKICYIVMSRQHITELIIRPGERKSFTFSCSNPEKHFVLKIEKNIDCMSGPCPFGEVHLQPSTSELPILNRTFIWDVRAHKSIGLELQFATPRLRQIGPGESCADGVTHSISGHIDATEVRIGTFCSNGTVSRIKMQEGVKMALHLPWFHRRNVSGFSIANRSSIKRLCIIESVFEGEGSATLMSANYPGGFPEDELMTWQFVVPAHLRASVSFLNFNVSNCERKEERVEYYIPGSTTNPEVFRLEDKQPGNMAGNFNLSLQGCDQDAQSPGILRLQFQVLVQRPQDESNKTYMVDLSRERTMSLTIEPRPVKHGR
T2 sequence 2: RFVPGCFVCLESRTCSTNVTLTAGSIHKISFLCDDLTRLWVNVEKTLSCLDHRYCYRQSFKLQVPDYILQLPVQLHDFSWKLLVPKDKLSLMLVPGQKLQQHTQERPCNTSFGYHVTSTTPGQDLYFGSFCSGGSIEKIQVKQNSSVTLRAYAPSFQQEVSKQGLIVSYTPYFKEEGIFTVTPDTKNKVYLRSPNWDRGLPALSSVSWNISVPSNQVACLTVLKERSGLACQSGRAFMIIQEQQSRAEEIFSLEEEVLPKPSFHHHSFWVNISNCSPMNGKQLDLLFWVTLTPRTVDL

[3] = biological target: T3, c-CDCP1 Cut 3 N-terminal fragment (NTF) (human, UniProt Q9H5V8 30-369); assay: co-transfection of NTF and CTF plasmids (Cut 3), Ni-NTA co-purification
T3 construct: also called NTF (Cut 3)
T3 sequence: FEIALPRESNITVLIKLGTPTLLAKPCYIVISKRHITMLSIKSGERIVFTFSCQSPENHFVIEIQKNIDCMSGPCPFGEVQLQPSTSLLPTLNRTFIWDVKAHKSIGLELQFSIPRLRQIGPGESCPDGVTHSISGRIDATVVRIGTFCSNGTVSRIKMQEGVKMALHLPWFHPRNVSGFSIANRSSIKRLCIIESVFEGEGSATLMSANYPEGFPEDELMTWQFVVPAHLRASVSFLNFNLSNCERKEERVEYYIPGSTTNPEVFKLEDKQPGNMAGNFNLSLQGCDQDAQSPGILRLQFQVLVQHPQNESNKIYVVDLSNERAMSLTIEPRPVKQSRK
Text: (§1) In the present example, CDCP1 antigen with endogenous cut sites was generated. Generation of the CDCP1 antigen proceeded by co-transfection of the two fragments on separate plasmids. One set of plasmids encoding the NTF of CDCP1, ending after the PI residue of the 3 different cut sites, was designed; and a second set of plasmids encoding the C-terminal ectodomain of CDCP1 starting at the P1′ residue of the 3 different cut sites (c-CDCP1 Cut 1, Cut 2, Cut 3), was designed (FIG. 3A). Uncleaved CDCP1 ectodomain was generated with a single plasmid encoding the entire ectodomain (fl-CDCP1). Following co-transfection of pairs of NTF and CTF plasmids, an intact cleaved CDCP1 complex was purified by Ni-NTA affinity chromatography for all of the NTF+CTF cut variants (FIG. 3B). In parallel, fl-CDCP1 and c-CDCP1 ectodomains fused to an Fc domain were generated for use in phage selection, using the same co-transfection strategy (FIG. 3H-FIG. 3L). Three pairs of NTF and CTF-Fc plasmids were made that ends or starts at the 3 different cut sites of cleaved CDCP1. An SDS-PAGE gel of fl-CDCP1-Fc and c-CDCP1-Fc (Cut 1, Cut 2, Cut 3) was run (FIG. 3I).

[4] = biological target: T4, c-CDCP1 Cut 2 N-terminal fragment (NTF) (human, UniProt Q9H5V8 30-368); assay: co-transfection of NTF and CTF plasmids (Cut 2), Ni-NTA co-purification
T4 construct: also called NTF (Cut 2)
T4 sequence: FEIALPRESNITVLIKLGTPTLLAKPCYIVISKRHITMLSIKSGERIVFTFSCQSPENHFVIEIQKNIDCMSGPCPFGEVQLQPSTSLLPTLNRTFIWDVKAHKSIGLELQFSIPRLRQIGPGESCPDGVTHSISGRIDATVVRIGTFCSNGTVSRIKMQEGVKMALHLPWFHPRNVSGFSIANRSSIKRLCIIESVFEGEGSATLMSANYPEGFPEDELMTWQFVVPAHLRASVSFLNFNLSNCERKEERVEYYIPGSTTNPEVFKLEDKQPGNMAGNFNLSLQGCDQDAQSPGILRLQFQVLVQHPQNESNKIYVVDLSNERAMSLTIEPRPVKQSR
Text: as §1

[5] = biological target: T5, c-CDCP1 Cut 1 N-terminal fragment (NTF) (human, UniProt Q9H5V8 30-365); assay: co-transfection of NTF and CTF plasmids (Cut 1), Ni-NTA co-purification
T5 construct: also called NTF (Cut 1)
T5 sequence: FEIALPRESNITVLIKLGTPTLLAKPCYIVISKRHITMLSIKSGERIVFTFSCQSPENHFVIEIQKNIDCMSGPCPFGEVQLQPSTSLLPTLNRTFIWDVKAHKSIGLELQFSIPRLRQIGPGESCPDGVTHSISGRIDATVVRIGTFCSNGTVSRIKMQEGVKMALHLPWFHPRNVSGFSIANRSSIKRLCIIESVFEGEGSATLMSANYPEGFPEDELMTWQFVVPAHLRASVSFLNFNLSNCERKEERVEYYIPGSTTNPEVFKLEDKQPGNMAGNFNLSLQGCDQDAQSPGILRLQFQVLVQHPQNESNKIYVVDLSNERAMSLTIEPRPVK
Text: as §1

c-CDCP1-Fc (Cut 2) = biological target: T6, c-CDCP1-Fc (Cut 2) (human, UniProt Q9H5V8 30-368; Q9H5V8 369-667); assay: BLI (Octet RED384) on c-CDCP1-Fc (Cut2); antibody concentration not given
T6 construct: Co-transfection of NTF and CTF-Fc plasmids; not shown: Fc domain
T6 sequence 1: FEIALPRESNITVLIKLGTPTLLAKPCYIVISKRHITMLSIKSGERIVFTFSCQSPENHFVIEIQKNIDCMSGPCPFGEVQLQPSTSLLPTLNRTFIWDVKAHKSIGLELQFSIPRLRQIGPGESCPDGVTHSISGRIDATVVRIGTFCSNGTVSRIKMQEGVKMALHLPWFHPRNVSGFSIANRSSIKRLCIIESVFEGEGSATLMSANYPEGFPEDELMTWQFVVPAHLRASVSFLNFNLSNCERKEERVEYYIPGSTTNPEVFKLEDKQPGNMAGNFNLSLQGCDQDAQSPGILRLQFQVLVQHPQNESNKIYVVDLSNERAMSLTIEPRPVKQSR
T6 sequence 2: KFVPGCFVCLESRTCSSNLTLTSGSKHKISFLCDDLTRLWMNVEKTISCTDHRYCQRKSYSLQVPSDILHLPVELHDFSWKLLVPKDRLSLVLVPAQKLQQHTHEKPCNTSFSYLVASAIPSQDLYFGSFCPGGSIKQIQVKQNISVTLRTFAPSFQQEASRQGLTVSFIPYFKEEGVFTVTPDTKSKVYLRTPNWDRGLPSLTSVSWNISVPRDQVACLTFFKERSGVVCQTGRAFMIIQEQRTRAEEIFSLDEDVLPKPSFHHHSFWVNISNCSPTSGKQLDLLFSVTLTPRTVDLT
Protocol: BLI experiments were performed using an Octet RED384 instrument (ForteBio). Biotinylated proteins were immobilized on a streptavidin (SA) biosensor and His-tagged proteins were immobilized on a Ni-NTA biosensor. Different concentrations of analyte in PBS pH 7.4+0.05% Tween-20+0.2% BSA (PBSTB) were used as analyte. Affinities (KDS) were calculated from a global fit (1:1) of the data using the Octet RED384 software.
Furthermore, variants of CL03 were evaluated for binding to c-CDCP1-Fc (Cut2) by BLI assays using an Octet RED384 instrument (ForteBio) (FIG. 16A) using a procedure as generally described in Example 1. The variants also were evaluated by SEC-based analysis (FIG. 16B) as generally described in Example 1. The variants evaluated by BLI assays and SEC-based analysis included the variants referred to as IgG87, IgG89, IgG94, IgG97, IgG101 (CL03 IgG H1-NtoD H3-MtoA), and IgG102.

B1: IgG 58 (antibody, V domains shown)
VH: EVQLVESGGGLVQPGGSLRLSCAASGFNVYSYSIHWVRQAPGKGLEWVASISSSSGSTSYADSVKGRFTISADTSKNTAYLQMNSLRAEDTAVYYCARYYWDPWQYASYSYLAFDYWGQGTLVTVSS
VL: MTQSPSSLSASVGDRVTITCRASQSVSSAVAWYQQKPGKAPKLLIYSASSLYSGVPSRFSGSRSGTDFTLTISSLQPEDFATYYCQQTYSGPITFGQGTKVEIKR
notes: Mouse cleaved-CDCP1-specific antibody; also called Ab58; IgG 0058
- EC50 [1]: 6.9 nM
- Kd [2]: 0.8 nM

B2: c-CDCP1 Cut 3 C-terminal fragment (CTF) of the ectodomain (receptor)
chain: FVPGCFVCLESRTCSSNLTLTSGSKHKISFLCDDLTRLWMNVEKTISCTDHRYCQRKSYSLQVPSDILHLPVELHDFSWKLLVPKDRLSLVLVPAQKLQQHTHEKPCNTSFSYLVASAIPSQDLYFGSFCPGGSIKQIQVKQNISVTLRTFAPSFQQEASRQGLTVSFIPYFKEEGVFTVTPDTKSKVYLRTPNWDRGLPSLTSVSWNISVPRDQVACLTFFKERSGVVCQTGRAFMIIQEQRTRAEEIFSLDEDVLPKPSFHHHSFWVNISNCSPTSGKQLDLLFSVTLTPRTVDLT
notes: Tag for Ni-NTA purification not described; also called CTF (Cut 3)
- binding result [3]: binds

B3: c-CDCP1 Cut 2 C-terminal fragment (CTF) of the ectodomain (receptor)
chain: KFVPGCFVCLESRTCSSNLTLTSGSKHKISFLCDDLTRLWMNVEKTISCTDHRYCQRKSYSLQVPSDILHLPVELHDFSWKLLVPKDRLSLVLVPAQKLQQHTHEKPCNTSFSYLVASAIPSQDLYFGSFCPGGSIKQIQVKQNISVTLRTFAPSFQQEASRQGLTVSFIPYFKEEGVFTVTPDTKSKVYLRTPNWDRGLPSLTSVSWNISVPRDQVACLTFFKERSGVVCQTGRAFMIIQEQRTRAEEIFSLDEDVLPKPSFHHHSFWVNISNCSPTSGKQLDLLFSVTLTPRTVDLT
notes: Tag for Ni-NTA purification not described; also called CTF (Cut 2)
- binding result [4]: binds

Next, values leading:

- binding result [5]: binds
B4: c-CDCP1 Cut 1 C-terminal fragment (CTF) of the ectodomain (receptor)
chain: QSRKFVPGCFVCLESRTCSSNLTLTSGSKHKISFLCDDLTRLWMNVEKTISCTDHRYCQRKSYSLQVPSDILHLPVELHDFSWKLLVPKDRLSLVLVPAQKLQQHTHEKPCNTSFSYLVASAIPSQDLYFGSFCPGGSIKQIQVKQNISVTLRTFAPSFQQEASRQGLTVSFIPYFKEEGVFTVTPDTKSKVYLRTPNWDRGLPSLTSVSWNISVPRDQVACLTFFKERSGVVCQTGRAFMIIQEQRTRAEEIFSLDEDVLPKPSFHHHSFWVNISNCSPTSGKQLDLLFSVTLTPRTVDLT
notes: Tag for Ni-NTA purification not described; also called CTF (Cut 1)

- binding result (c-CDCP1-Fc (Cut 2)): binds
B5: IgG102 (antibody, V domains shown)
VH: EVQLVESGGGLVQPGGSLRLSCAASGFDFSSYSIHWVRQAPGKGLEWVASSYPYSGSTYYADSVKGRFTISADTSKNTAYLQMNSLRAEDTAVYYCARQSHSYYSHTWWVSYGMDYWGQGTLVTVSS
VL: DIQMTQSPSSLSASVGDRVTITCRASQSVSSAVAWYQQKPGKAPKLLIYSASSLYSGVPSRFSGSRSGTDFTLTISSLQPEDFATYYCQQSGQRPITFGQGTKVEIK
